From patent US20140219982A1, “EXOGENOUS OPIOID PEPTIDE-DEGRADING ENZYME” (priority 2011, published 2014)

Tested on: gliadorphin (YPQPQPF: SEQ ID NO: 2)
Experiment: Analysis of gliadorphin degradation product by LC-MS
Assay type: biochemical

B1: papain (protein, UniProt P00784 134-345, looked up)
Papain: IPEYVDWRQKGAVTPVKNQGSCGSCWAFSAVVTIEGIIKIRTGNLNEYSEQELLDCDRRSYGCNGGYPWSALQLVAQYGIHYRNTYPYEGVQRYCRSREKGPYAAKTDGVRQVQPYNEGALLYSIANQPVSVVLEAAGKDFQLYRGGIFVGPCGNKVDHAVAAVGYGPNYILIKNSWGTGWGENGYIRIKRGTGNSYGVCGLYTSSFYPVKN
notes: protease, commercial (Asahi Food & Healthcare Co., Ltd.)
Q: For B1, which “detection of undegraded 7-mer of gliadorphin” value (LC-MS of degradation product) is on record?
A: The value was “undegraded 7-mer was detected”.

Q: What about the “direct degradability for exomorphine peptide” value (papain alone, as shown in the examples) of the same molecule?
A: Its value is “did not exhibit direct degradability”.
